How the values were obtained:
[1] = target: T1, Mja FEN1 (Methanococcus jannaschii) (UniProt Q58839); test: cleavage_in_vitro; settings: turnover
T1 sequence: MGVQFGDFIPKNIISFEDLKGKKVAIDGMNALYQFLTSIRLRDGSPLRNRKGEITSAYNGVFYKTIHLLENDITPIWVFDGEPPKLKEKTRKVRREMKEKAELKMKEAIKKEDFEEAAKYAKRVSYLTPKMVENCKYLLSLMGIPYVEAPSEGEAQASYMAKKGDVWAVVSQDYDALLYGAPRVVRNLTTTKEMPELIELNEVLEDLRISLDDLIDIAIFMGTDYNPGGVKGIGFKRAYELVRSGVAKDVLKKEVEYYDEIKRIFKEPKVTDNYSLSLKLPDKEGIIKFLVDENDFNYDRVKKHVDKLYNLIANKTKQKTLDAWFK

[2] = target: T2, Pfu FEN1 (Pyrococcus furiosus) (UniProt O93634); test: cleavage_in_vitro; settings: turnover
T2 sequence: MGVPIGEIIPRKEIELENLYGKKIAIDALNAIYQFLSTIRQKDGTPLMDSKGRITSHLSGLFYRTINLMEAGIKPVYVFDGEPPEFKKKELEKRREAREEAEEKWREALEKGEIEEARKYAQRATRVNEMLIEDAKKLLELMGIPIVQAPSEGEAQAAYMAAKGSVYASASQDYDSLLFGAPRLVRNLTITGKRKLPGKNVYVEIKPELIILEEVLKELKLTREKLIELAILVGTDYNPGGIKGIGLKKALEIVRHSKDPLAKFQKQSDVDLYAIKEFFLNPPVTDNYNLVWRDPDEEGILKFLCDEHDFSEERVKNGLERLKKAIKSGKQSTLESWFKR

[3] = target: PAP FEN1 (arch swap chimera) (Pyrococcus furiosus / Archaeoglobus fulgidus?) (UniProt O93634); test: cleavage_in_vitro; settings: rate vs Pfu FEN1
[4] = target: MPM FEN1 (arch swap chimera) (Methanococcus jannaschii / Pyrococcus furiosus?) (UniProt Q58839); test: cleavage_in_vitro; settings: rate vs Pfu FEN1
[5] = target: MAM FEN1 (arch swap chimera) (Methanococcus jannaschii / Archaeoglobus fulgidus?) (UniProt Q58839); test: cleavage_in_vitro; settings: rate vs Pfu FEN1
[6] = target: Mja + P16 FEN1 (loop swap chimera) (Methanococcus jannaschii / Pyrococcus furiosus?) (UniProt Q58839); test: cleavage_in_vitro; settings: rate vs Pfu FEN1
[7] = target: PMP FEN1 (arch swap chimera) (UniProt O93634); test: cleavage_in_vitro; settings: rate vs Pfu FEN1
[8] = target: Pfu + M4 FEN1 (loop swap chimera) (UniProt O93634); test: cleavage_in_vitro; settings: rate vs Pfu FEN1
[9] = tested on: Thermus aquaticus DNA polymerase
[10] = tested on: CLEAVASE BN/thrombin nuclease
[11] = target: DNAPTth (Thermus thermophilus) (UniProt P52028); test: cleavage_in_vitro; settings: probe cleaved in 30 min
[12] = target: CLEAVASE A/G nuclease (Thermus aquaticus) (UniProt P19821); test: cleavage_in_vitro; settings: probe cleaved in 30 min
CLEAVASE A/G nuclease (Thermus aquaticus), sequence (P19821 whole entry): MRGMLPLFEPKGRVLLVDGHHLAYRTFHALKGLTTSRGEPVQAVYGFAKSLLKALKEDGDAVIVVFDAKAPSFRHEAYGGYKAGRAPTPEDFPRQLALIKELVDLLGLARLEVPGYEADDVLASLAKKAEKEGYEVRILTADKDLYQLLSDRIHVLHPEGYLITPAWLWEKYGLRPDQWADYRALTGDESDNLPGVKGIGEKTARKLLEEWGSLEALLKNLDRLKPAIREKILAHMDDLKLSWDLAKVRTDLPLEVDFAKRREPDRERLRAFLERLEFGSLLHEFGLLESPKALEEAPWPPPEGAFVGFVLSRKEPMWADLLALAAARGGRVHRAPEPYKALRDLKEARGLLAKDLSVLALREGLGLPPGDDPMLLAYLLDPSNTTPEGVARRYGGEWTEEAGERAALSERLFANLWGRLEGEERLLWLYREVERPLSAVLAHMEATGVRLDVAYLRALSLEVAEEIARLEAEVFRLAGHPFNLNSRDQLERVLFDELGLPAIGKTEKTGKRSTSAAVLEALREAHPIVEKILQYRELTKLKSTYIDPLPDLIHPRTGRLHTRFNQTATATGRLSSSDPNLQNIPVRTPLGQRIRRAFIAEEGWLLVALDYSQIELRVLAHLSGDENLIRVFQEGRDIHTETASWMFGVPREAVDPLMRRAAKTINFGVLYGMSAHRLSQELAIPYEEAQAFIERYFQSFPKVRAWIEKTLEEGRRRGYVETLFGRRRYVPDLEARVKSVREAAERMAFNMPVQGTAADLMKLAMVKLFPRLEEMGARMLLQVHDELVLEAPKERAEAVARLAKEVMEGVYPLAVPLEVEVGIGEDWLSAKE

Thermus aquaticus DNA polymerase, sequence (chain, as listed by the source): as the sequence (P19821 whole entry) above
CLEAVASE BN nuclease, sequence (chain, as listed by the source): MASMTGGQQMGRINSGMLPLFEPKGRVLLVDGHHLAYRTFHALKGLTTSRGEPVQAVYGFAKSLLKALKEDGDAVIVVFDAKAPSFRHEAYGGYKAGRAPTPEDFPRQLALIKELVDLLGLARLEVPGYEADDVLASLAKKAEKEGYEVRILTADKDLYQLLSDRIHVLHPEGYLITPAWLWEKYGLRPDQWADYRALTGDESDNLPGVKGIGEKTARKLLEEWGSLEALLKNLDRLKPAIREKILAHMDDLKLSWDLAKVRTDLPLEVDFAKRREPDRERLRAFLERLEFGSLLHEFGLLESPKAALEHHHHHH
DNAPTth (Thermus thermophilus), sequence (P52028 whole entry): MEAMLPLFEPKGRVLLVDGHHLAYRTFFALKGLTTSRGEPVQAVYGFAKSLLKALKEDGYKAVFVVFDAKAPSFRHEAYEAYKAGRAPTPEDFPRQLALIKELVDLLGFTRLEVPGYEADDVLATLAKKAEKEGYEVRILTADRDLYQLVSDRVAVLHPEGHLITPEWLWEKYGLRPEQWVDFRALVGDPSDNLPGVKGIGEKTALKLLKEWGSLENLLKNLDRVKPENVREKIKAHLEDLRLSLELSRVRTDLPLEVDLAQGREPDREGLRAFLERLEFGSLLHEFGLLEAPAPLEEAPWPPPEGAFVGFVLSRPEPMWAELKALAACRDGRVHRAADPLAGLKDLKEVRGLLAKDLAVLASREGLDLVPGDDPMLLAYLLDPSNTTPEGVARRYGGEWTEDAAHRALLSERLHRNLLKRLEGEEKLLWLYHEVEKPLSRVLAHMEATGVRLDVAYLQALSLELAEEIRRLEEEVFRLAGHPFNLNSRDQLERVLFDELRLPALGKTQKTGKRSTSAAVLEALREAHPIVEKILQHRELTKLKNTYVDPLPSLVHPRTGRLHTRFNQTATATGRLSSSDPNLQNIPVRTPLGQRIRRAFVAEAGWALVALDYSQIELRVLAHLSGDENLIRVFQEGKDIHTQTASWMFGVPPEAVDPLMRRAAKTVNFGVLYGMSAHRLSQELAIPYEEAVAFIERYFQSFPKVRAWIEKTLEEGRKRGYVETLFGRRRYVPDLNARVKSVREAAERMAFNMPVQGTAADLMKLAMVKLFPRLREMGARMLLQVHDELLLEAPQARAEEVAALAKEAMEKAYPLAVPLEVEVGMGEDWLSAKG
CLEAVASE BN/thrombin nuclease, sequence (chain, as listed by the source): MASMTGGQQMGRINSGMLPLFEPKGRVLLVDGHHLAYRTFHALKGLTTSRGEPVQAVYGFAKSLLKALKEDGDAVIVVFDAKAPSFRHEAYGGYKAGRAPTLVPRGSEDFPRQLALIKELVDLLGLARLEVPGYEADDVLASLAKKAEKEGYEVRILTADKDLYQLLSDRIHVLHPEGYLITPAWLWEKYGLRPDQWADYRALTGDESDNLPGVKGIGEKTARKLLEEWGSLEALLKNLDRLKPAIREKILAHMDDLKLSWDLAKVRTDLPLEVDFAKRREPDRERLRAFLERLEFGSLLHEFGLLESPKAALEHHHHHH

duplex length 8 substrate was tested, and the activity [1] was 46 per min and the activity [2] was 45 per min.
duplex length 0 substrate gave an activity [1] of 0 per min and an activity [2] of 0 per min.
“TTTTTCACGGCAGTTGGTGCGCCTCGGAACGAGGCGCACA / TTTTCAACTGCCGTGA [INVADER substrate 594-12-1/203-91-1]” gave a cleavage rate [3] of 0.56, a cleavage rate [4] of 0.14 and a cleavage rate [5] of 0.03. It also gave a cleavage rate [6] of 1.2, a cleavage rate [7] of 2.4 and a cleavage rate [8] of 0.05.
thrombin was tested, and the “protease digestion of the unmodified nuclease” value (“protease digestion” for short) [9] was “neither nuclease was digested with large amounts of thrombin”, the “thrombin digestion, SDS-PAGE with Coomassie stain” value [10] was “CLEAVASE BN/thrombin nuclease is efficiently cleaved by thrombin” and the “protease digestion” value (CLEAVASE BN nuclease) was “neither nuclease was digested with large amounts of thrombin”.
“CCGGTCGTCCTGGCAATXCC / GTTTATCCAAGAAAGGACCCGGTC [HCV RNA target/probe/INVADER (DNA oligos listed)]” gave an activity [11] of 70% and an activity [12] of 32%.
For duplex length 4 substrate, the activity [1] was 57 per min and the activity [2] was 10 per min.
“TTTTCAACTGCTTAGAGAATCTAAGCAGTTGGTGCGCCTCGTTAA / AACGAGGCGCACATT [X-structure 203-81-2/203-91-2]” was tested, and the cleavage rate ([3]; 3'-NH2 on first strand) was 0.52, the cleavage rate ([4]; 3'-NH2 on first strand) was 0.1 and the cleavage rate ([5]; 3'-NH2 on first strand) was 0.07. The cleavage rate ([6]; 3'-NH2 on first strand) was 59, the cleavage rate ([7]; 3'-NH2 on first strand) was 1.37 and the cleavage rate ([8]; 3'-NH2 on first strand) was 0.28.
With factor Xa the “protease digestion” value [9] was “Both nuclease proteins were cut with factor Xa within the 5′ nuclease domain” and the “protease digestion” value (CLEAVASE BN nuclease) was “Both nuclease proteins were cut with factor Xa within the 5′ nuclease domain”.
Work on duplex length 3 substrate yielded an activity [1] of 29 per min and an activity [2] of 1 per min.
In the case of duplex length 6 substrate, the activity [1] was 51 per min and the activity [2] was 44 per min.

Source: patent publication US20050048527
